Measurements published in US11819552B2, “Antibody-drug conjugates targeting uPARAP” (RIGSHOSPITALET, priority 2016, dated 2023).
Entries after “also recorded” stand apart in the source; their conditions may differ.

Key:
[1] = biological target: T1, soluble recombinant protein consisting of the three N-terminal domains of uPARAP (CysR, FN-II and CTLD-1) (Homo sapiens, UniProt Q9UBG0); details: immobilized 2h9, soluble three-domain protein; Jürgensen et al., 2011; cited from earlier work
T1 construct: A soluble recombinant protein consisting of the three n-terminal domains of uPARAP (CysR, FN-II and CTLD-1)
T1 sequence (Q9UBG0 41-360 limits assumed): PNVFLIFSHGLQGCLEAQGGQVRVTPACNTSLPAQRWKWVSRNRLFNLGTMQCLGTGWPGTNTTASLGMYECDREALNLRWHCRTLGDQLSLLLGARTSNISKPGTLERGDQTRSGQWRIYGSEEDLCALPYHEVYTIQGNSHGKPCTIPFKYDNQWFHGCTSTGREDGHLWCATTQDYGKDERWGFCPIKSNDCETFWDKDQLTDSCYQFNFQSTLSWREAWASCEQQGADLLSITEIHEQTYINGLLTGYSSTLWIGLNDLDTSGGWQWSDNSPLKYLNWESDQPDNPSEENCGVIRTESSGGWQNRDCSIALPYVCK

uPARAP [2] = biological target: T2, uPARAP (Homo sapiens, UniProt Q9UBG0); experiment: Antibody reactivity with uPARAP; assay type: binding; details: listed as 2h9
T2 sequence (Q9UBG0 31-1479): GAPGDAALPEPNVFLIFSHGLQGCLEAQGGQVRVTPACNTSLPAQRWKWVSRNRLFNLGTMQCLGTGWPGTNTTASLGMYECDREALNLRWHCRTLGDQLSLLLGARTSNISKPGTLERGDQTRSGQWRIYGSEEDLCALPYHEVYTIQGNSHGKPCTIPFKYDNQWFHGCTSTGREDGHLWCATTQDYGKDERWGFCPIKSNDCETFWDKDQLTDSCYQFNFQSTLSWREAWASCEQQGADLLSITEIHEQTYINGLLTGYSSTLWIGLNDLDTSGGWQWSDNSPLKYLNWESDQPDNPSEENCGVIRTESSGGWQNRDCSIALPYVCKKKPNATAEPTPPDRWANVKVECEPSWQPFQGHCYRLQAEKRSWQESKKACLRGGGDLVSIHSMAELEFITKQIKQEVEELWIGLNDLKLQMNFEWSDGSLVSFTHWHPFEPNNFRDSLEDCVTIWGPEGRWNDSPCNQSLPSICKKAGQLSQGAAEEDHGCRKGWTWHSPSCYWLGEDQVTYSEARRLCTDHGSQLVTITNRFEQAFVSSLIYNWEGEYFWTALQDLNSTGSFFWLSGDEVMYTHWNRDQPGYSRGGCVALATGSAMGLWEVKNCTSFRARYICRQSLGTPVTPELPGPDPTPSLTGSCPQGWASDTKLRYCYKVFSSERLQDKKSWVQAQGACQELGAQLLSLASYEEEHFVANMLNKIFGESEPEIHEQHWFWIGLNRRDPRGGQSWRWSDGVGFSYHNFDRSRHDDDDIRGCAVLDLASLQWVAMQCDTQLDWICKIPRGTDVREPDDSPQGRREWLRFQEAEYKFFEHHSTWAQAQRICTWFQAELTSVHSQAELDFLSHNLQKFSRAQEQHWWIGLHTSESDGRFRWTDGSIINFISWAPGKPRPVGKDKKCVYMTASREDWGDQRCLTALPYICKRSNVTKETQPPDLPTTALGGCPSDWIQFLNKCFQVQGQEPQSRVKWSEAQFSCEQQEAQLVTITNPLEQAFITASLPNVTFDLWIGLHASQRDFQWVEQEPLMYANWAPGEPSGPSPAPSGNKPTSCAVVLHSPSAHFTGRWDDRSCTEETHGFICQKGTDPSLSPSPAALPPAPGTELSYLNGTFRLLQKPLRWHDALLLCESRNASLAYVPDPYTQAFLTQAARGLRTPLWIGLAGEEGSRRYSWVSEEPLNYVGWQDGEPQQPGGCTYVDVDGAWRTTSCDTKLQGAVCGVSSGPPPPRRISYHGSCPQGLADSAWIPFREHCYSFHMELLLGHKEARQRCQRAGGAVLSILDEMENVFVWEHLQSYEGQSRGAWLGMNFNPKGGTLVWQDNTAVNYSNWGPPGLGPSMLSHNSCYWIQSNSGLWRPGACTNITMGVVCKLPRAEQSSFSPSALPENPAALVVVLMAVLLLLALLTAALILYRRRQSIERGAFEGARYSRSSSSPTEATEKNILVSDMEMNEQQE

uPARAP [3] = biological target: T2, uPARAP; experiment: Western blotting of MG63 cell lysate; assay type: binding; design: endogenous in cells; host or cells: MG63 human osteosarcoma cells; details: detergent lysate of uPARAP-positive MG63 human osteosarcoma cells
Experimental: For Western blotting, a detergent cell lysate prepared from uPARAP-positive MG63 human osteosarcoma cells was analyzed, using identical concentrations of “2h9 cloned” and “2h9 original” as the primary antibodies. […] No reaction is seen in the absence of primary antibody (negative control).

B1: mAb 2h9: mouse monoclonal IgG1k anti-uPARAP antibody clone 2.h.9: F12, produced by hybridoma cell culture (protein)
light: DIQMTQSPASQSASLGESVTITCLASQTIGTWLAWYQQKPGKSPQLLIYAATTLTDGVPSRFSGAGSGTKFSLKISSLQAEDFASYFCQEFFSTPFTFGSGTKLELKRADAAPTVSIFPPSSEQLTSGGASVVCFLNNFYPKDINVKWKIDGGERQNGVLNSWTDQDSKDSTYSMSSTLTLTKDEYERHNSYTCEATHKTSTSPIVKSFNRNEC
heavy: QVQLQQPGTELVRPGLSVKLSCKASGYTFTSYWMNWVKQRPGQGLEWIGMIHPSNDEKRINQKFKDKATLTVDKFSSTVYMQVSSPTSEDSAVYYCARGGGDYVGDYALDFWGQGTSVTVSSAKTTPPSVYPLAPGSAAQTNSMVTLGCLVKGYFPEPVTVTWNSGSLSSGVHTFPAVLQSDLYTLSSSVTVPSSTWPSETVTCNVAHPASSTKVDKKIVPRDCGCKPCICTVPEVSSVFIFPPKPKDVLTITLTPKVTCVVVDISKDDPEVQFSWFVDDVEVHTAQTQPREEQFNSTFRSVSELPIMHQDWLNGKEFKCRVNSAAFPAPIEKTISKTKGRPKAPQVYTIPPPKEQMAKDKVSLTCMITDFFPEDITVEWQWNGQPAENYKNTQPIMDTDGSYFIYSKLNVQKSNWEAGNTFTCSVLHEGLHNHHTEKSLSHSPGK
[1]
  Binding in BIAcore setup: binds to immobilized 2h9
uPARAP [2]
  Reactivity with human uPARAP: reactive against both human and murine uPARAP; also recorded: reacts with both human and mouse uPARAP
uPARAP [3]
  Reactivity in Western blotting: react specifically with the uPARAP protein
